Measurements reported in PMC6541287 (2019).

Target: T1, Coactosin (Entamoeba histolytica, UniProt C4M4P4)
T1 chain: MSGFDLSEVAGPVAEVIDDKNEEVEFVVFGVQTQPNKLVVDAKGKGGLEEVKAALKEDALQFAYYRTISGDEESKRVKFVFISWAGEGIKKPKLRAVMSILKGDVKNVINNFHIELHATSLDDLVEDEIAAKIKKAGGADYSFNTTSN
Test: SPR

B1: EhP3 (protein)
chain: MAESREDCVFLSKLAEQSERYDEMVQYMKQVAALNTELSVEERNLLSVAYKNVIGSRRASWRIITSLEQKEQAKGNDKHVEIIKGYRAKIEDELAKYCDDVLKVIKENLLPNASTSESKVFYKKMEGDYYRYYAEFTVDEKRQEVADKSLAAYTEATEISNADLAPTHPIRLGLALNFSVFYYEIMNDADKACQLAKQAFDDSIAKLDEVPESSYKDSTLIMQLLRDNLTLWTSDTADEE
Work on B1 yielded a Kd of 3000 nM.
